B1: TPR t1 (parent)
chain: GACCAAUCUGCCCUCAGAGCUCGAGAACAUCUUCGGAUGCAGAGGAGGCAGGCUUCGGUGGCGCGAUAGCGCCAACGUCCUCAACCUCCAAUGCAUCCCACCACAUGAUGAUGCCUGAAGAGCCUUGGUUUUUUG

Variants of: B1
Assay: polymerase ribozyme fitness, log enrichment relative to wild type (log ratio); higher = more active; in vitro selection for triplet polymerase activity
Procedure, shortened: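 PCR was used to build mutant libraries for each subunit of a heterodimeric triplet polymerase ribozyme, which were then transcribed. A single in vitro selection round, in triplicate, used a frozen incubation at −7 °C and recovered extended constructs by gel excision, streptavidin beads and RT-PCR. Fitness is the logarithm of genotype enrichment relative to wild-type enrichment, averaged over replicates with inverse-variance weights. The logarithm is base 2, and after Illumina sequencing only genotypes with ≥10 input reads and ≥1 read per output were kept.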

In order of falling “polymerase ribozyme fitness (log ratio)” value:
1. A16U U59A C124A  1.46
2. A16C C124A  0.87
3. A16G C124U  0.601
4. A16U U116G  0.557
5. G17A C115U U125A  0.421
6. A16C G52A A119G  0.273
7. G17A C124G  0.0623
8. A16U G69U C98U A121C U130A  -0.111
9. G17A U55A G77U C115U U125A  -0.205
10. A16G G71U C123U  -0.364
11. A16G G61U A66U U81A U106A U116C  -0.459
12. C15U U54C C73U G113A C124G  -0.579
13. A16C C49A C94A C124A  -0.594
14. C15U G61U  -0.638
15. A16G A46U C124U  -0.673
16. A16G U55A C102A A121U  -0.698
17. A16U C40G C56U U112G  -0.767
18. A16U G47A C56G C86U C101A A121C  -0.796
19. A16C U112C  -0.921
20. A16U G63C G120U U125C  -0.937
21. A16G C49A C73U  -0.946
22. A16U C49A G69U  -1.01
23. A16U C104U  -1.25
24. A16U G52A C72U  -1.31
25. A16G A74U  -1.36
26. C15U G69U  -1.38
27. C15U U54C C72U  -1.39
28. A16U A37C C53A A91G U112A  -1.42
29. A16U C49A G63C  -1.43
30. G17A G36U G120C C123U C124G  -1.43
31. A16G A43G C124U U125A  -1.48
32. A16U C72G  -1.5
33. A16G C76G G117A C123G G135U  -1.57
34. A16U A43U U112C  -1.59
35. A16G G52A C56A G69U  -1.69
36. A16U G58A C72U  -1.69
37. A16U C62U C94U  -1.79
38. G17A C124U  -1.79
39. A16C U87A C123G G128C  -1.81
40. C15U G63C U129C  -2
41. A16C C56U  -2
42. G17A C123U  -2.01
43. C15U G63A  -2.04
44. A16G G48A G110A  -2.05
45. A16U C72G G122A  -2.16
46. A16U C82U  -2.17
47. A16U C62U U81G A121U  -2.2
48. A16U U78C  -2.22
49. A16G C76G G120A  -2.25
50. A16U U96A  -2.28
51. A16G A41C A50U U81A U106A  -2.3
52. C15U G61C  -2.32
53. A16C A50G  -2.32
54. G17A G61A  -2.34
55. A16U G93A  -2.35
56. A16G U81A  -2.36
57. A16C C56A  -2.44
58. A16U A46U C49A  -2.45
59. G17A G48A U87G G117A  -2.48
60. A16G G69U C73U C99U  -2.5
61. A16U C56G  -2.56
62. A16U C73G  -2.59
63. A16U C89A  -2.6
64. A16U G17C C123U U126C  -2.6
65. G17A G61U  -2.6
66. A16C G58C  -2.65
67. A16C C56G  -2.73
68. G17A U38G C115A U116A U131C  -2.73
69. A16U C85U  -2.77
70. C15U G57U C72G U81G  -2.79
71. G17A G69U U81A U116A  -2.91
72. C15U G61C U125A  -2.92
73. A16U C70G  -2.98
74. A16G G69C A91U G113U  -3.01
75. A16U G93U C123A U133C  -3.02
76. A16U G77A G117U  -3.13
77. C15U U32C C89A A119G G128C  -3.29
78. C15U G57A G117U  -3.3
79. A16C G52C C62U  -3.32
80. A16G C40A C49G  -3.32
81. G17A U78C U129C  -3.37
82. A16C C56U G69U G120A  -3.38
83. A16U G52U G69A C76U U78C A121C  -3.43
84. A16U G42C A43G G45U C73A U129A  -3.44
85. A16U G39U  -3.47
86. A16G G93A G120A G122U U130G  -3.58
87. G17A C49G A83U U87C G117A  -3.65
88. G17A G36U  -3.69
89. A16C C40G C56A  -3.75
90. A16U G61A U81A C88G  -3.75
91. A16U C28U C76G C82U U116A  -3.83
92. A16U A50C C56A A95C  -3.91
93. A16C G44C C49U  -3.94
94. G17A C88U U133A  -3.95
95. A16G G117C  -3.97
96. G17A G61A C73U A75C  -3.99
97. A16C C53G G63U U132C  -4
98. A16U C114A  -4.01
99. A16U G60C G117C U125A  -4.08
100. G17A A37U U54C C70U  -4.08
101. G17A G110A  -4.08
102. C15U G63U U78A G127C  -4.1
103. A16U G63U  -4.13
104. G17A A43G G127A  -4.18
105. G17A G69C U112A  -4.29
106. C15U G52A G58A C88U C115U  -4.34
107. A16C G44U U78C  -4.35
108. A16U G45C C56G A83C  -4.35
109. A16C G44U U125G  -4.42
110. A16U A27U G61A  -4.42
111. A16C G122A  -4.43
112. A16U G117C G120A  -4.52
113. A16G A41C A84U C99A G117C U133C  -4.53
114. G17A C53U U54A C64U U92G  -4.58
115. A16C U38G A46U C56A U59A U87G  -4.62
116. G17A A41U A84C  -4.63
117. A16G C49G C56G  -4.65
118. A16G A68G  -4.75
119. A16U G51U  -4.76
120. G17A G47U  -4.84
121. G17A A66G  -4.85
122. A16U C79U C86A G120U G128A  -4.89
123. A16U C22G C64U  -4.96
124. G17A G77U U78A A118U  -4.97
125. A16U C40U U87G U92A  -5.02
126. C15U G63A C73U A90C G110U  -5.03
127. G17C A29U U125G  -5.1
128. C15U G71A C102A  -5.13
129. G17A G42U U106A  -5.21
130. G17A U109A G117A C124A  -5.22
131. A16U C20A C56A  -5.28
132. G17C A75G C101U  -5.29
133. A16C C20G U59G U106A G113A  -5.4
134. G17A G39U C49G U78C G117U  -5.4
135. A16G G93A U109G  -5.43
136. G17C A37U C64U U92A  -5.44
137. G17A A18C C22U G35A A75U C79G A90G C99A C124G  -5.46
138. G17A C40A A43U  -5.48
139. A16U G69A C82G C97A C114U U133G  -5.51
140. A16U U21C G60A G71U U112G G113A  -5.57
141. A16C G47U A119U  -5.65
142. G17A A18C C114G C124A G135U  -5.65
143. C15U G63A C79A U112G  -5.66
144. G17A C62G  -5.69
145. G17A G23U G61U C76U C114A  -5.73
146. A16C C62G A74G C114U  -5.78
147. G17C A29G C72A  -5.8
148. C15U U78C A83C C97A C101A U109A  -5.99
149. C15U G69C C73G C94A A111C  -6.09
150. G17A G48A C102A A119U C123A  -6.09
151. C15U G71C C80G  -6.22
152. A16C G57U G71U U87A G127C  -6.26
153. A16C U32G G69A U109C G135A  -6.26
154. A16U G47U G52U G65U C115U G117C  -6.26
155. A16U U32C U38G G71A C114G A121U U133A  -6.3
156. A16G G69C A84G C102A C114U C115A  -6.44
157. A16G G44U G113C A119C G135A  -6.45
158. A16C A46U G117A U133G  -6.47
159. C15U G61A C89A A111U  -6.53
160. G17A A50U G51U C114G  -6.63
161. A16G C22A G47U G48U C64U C123G  -6.67
162. G17A C49A G58A G110C  -6.79
163. A16G C22U G45U C64G C86G A121C  -7.27
164. G17A U55A G63U A84G  -7.59
165. A16C G23C G61C G63A U87A A105G G110C  -7.62
166. A16U G23A G36U A46C G47C C73A C114U U129G U132A  -7.62
167. A16G G65U C73G C89A C123A  -7.69

— the RNAGym collection of RNA variant scans (doi:10.1073/pnas.2313332121)
